Assay results reported in patent US20250074980A1 (BRIGHAM AND WOMEN S HOSPITAL, published 2025).
One block for each binder: values may come before it.

Tests used:
[1] = biological target: T1, CEACAM1 on transfected HeLa cells (human, UniProt P13688 35-526); test: flow cytometry, transfected HeLa
T1 construct: also called HeLa-CEACAM1; HeLa C1
T1 sequence: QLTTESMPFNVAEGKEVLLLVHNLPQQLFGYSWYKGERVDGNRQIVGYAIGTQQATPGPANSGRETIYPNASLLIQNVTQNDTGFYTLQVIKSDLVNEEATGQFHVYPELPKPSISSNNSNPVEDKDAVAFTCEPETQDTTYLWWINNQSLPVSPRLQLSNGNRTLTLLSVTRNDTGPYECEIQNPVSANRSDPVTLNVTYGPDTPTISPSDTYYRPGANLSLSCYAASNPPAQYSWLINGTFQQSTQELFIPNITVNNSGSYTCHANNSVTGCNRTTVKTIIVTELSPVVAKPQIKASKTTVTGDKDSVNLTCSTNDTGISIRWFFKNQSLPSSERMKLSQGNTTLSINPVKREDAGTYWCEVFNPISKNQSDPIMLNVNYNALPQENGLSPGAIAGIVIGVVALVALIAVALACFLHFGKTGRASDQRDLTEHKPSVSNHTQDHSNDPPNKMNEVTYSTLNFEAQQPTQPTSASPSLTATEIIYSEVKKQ

[2] = biological target: T2, CEACAM5 on transfected HeLa cells (human, UniProt P06731 35-685); test: flow cytometry, transfected HeLa
T2 construct: whole, on cells; also called HeLa-CEACAM5; HeLa C5
T2 sequence (looked up): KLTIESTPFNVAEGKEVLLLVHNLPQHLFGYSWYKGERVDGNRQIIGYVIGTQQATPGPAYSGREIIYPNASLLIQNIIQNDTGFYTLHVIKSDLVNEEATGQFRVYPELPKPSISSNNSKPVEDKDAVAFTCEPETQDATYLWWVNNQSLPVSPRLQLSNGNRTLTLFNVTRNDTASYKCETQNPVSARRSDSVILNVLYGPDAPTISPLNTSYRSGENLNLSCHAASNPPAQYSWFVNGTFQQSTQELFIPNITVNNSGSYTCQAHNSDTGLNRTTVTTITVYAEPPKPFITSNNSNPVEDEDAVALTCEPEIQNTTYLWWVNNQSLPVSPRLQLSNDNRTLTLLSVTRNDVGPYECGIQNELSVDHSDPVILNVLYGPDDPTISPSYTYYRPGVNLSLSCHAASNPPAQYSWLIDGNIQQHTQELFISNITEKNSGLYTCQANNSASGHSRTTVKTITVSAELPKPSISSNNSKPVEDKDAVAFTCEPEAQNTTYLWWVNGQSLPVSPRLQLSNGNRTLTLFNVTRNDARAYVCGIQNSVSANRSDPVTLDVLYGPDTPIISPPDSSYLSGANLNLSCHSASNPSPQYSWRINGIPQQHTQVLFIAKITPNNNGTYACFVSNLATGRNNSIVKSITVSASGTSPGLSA

[3] = biological target: T3, CEACAM6 on transfected HeLa cells (human, UniProt P40199 35-320); test: flow cytometry, transfected HeLa
T3 construct: whole, on cells; also called HeLa-CEACAM6; HeLa C6
T3 sequence (looked up): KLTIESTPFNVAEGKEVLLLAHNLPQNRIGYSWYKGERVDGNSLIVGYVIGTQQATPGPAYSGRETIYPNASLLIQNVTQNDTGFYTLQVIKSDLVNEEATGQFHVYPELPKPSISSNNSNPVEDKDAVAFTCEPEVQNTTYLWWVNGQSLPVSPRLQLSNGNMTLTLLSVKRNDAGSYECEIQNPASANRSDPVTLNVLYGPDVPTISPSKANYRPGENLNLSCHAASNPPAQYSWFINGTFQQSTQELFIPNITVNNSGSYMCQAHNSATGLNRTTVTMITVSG

GST-CEACAM1 = biological target: T4, GST-CEACAM1 (human, UniProt P13688 35-141, limits assumed); test: competition ELISA: binding of human CEACAM1-GST (37.5 µg/ml) to human TIM-3 IgV domain tagless protein (3 µg/ml), anti-GST detection, OD 450 nm
T4 construct: also called human CEACAM1-GST protein
T4 sequence: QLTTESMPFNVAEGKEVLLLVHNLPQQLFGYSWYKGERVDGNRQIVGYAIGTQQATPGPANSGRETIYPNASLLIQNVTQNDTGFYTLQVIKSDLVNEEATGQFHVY
Protocol: The ability of the CEACAM1 antibodies to reduce the binding of CEACAM1 to TIM-3 was examined. […] In addition, human IgG4 antibody was used as a control (0-1000 nM). Goat polyclonal anti-GST-HSP antibody from Abcam (1:2000) was used and assays were developed by addition of TMB solution (Life technologies). OD values were read at 450 nm on a plate reader. Data was plotted in a Graphpad and best-fit IC-50 values were determined.

relative amount of cells bound [1]: 78
relative amount of cells bound [2]: 8.81
relative amount of cells bound [3]: 0.3
B1: chimeric antibody VH0/Vκ0 (antibody, IgG4, V domains shown)
VH: EVQLVESGGDLVKPGGSLKLACAASGFIFSSHGMSWVRQTPDKRLEWVATISSGGTYTYYPDSVKGRFTISRDNDKNTLYLQMNSLKSEDTAMYYCARHDFDYDAAWFAYWGQGTLVTVSS
VL: QIVLTQSPALMSASPGVKVTMTCSANSSVSYMYWYRQKPRSSPKPWIYLTSNLASGVPARFSGSGSGTSYSLTISSMEAEDAATYYCQQWSSNPPTFGSGTKLEIK
notes: IgG4 (S241P), kappa; also called VH0/Vκ0 (control); Chimeric VH0/Vκ0

IC50 (GST-CEACAM1): 31.9 nM
B2: CP08H03/Vκ8 S29A (antibody, IgG4, V domains shown)
VH: EVQLLESGGGLVQPGGSLRLSCAASGFIFSSHGMSWVRQAPGKGLEWVATISSGGTYTYYPDSVKGRFTISRDNSKNTLYLQMNSLKAEDTAMYYCARHDFDYFPYWFAHWGQGTLVTVSS
VL: EIVLTQSPATLSLSPGERATLSCRANSAVSYMYWYQQKPGQAPRPWIYLTSNRATGVPARFSGSGSGTDYTLTISSLEPEDFAVYYCQQWSSNPPTFGQGTKLEIK
notes: IgG4 (S241P), kappa; also called CP08_H03/Parent VL; CP08_H03/Parental
